{
  "source": "patent US20260008815A1",
  "about": "“CYCLIC PEPTIDE OR SALT THEREOF, AND USES THEREOF” (FUJIFILM Corporation, priority 2023, published 2026)",
  "key": {"[1]": {"target": "T1, Recombinant Human FGFR2 alpha (IIIc) Fc Chimera Protein (Homo sapiens, UniProt P21802)", "T1 construct": "Fc (chimera); purchased R&D systems 712-FR-050", "T1 sequence (P21802 with tags, fused parts or gaps limits assumed)": "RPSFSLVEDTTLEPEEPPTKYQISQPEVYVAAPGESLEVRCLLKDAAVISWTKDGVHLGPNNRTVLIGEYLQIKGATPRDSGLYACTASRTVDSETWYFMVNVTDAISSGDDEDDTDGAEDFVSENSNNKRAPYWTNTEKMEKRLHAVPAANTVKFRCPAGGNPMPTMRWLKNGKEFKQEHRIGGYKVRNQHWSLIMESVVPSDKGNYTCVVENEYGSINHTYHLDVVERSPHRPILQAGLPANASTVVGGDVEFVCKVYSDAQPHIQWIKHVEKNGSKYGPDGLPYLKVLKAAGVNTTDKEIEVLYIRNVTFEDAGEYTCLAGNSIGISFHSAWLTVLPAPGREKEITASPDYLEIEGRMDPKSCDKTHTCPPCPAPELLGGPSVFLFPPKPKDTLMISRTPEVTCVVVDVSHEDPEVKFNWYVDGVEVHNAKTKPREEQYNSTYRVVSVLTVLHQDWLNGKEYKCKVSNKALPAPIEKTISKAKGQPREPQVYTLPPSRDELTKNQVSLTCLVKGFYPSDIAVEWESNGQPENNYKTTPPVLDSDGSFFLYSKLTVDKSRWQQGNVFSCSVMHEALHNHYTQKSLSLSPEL", "experiment": "SPR binding affinity of chemically synthesized cyclic peptide to immobilized FGFR", "conditions": "SPR binding amount at 10 nmol/L cyclic peptide, 25° C., per one molecule of FGFR; chemically synthesized product", "procedure": "The binding affinity of the cyclic peptide to FGFR was evaluated using a surface plasmon resonance (SPR) method.\n(§1) A CM5 sensor chip (Cytiva, 29149603) was set in Biacore-T200 (manufactured by Cytiva) which is a surface plasmon resonance device, and an HBS-EP buffer (Cytiva, BR100826) was added as a running buffer at a flow rate of 10 μL/min to equilibrate the flow channel. Next, 70 μL of a mixed aqueous solution of 0.2 mol/L 1-(3-dimethylaminopropyl)-3-ethylcarbodiimide (EDC) and 0.05 mol/L N-hydroxysuccinimide (NHS) was added to activate the sensor chip. Then, Recombinant Human FGFR2 alpha (IIIc) Fc Chimera Protein CF (R&D systems, 712-FR-050) prepared at 50 nmol/L in an Acetate 4.5 buffer (Cytiva, BR100350) was added thereto to perform immobilization at about 5000 RU. Thereafter, the blocking treatment was performed with an ethanolamine solution. In addition, in another flow channel of the same sensor chip, blocking treatment was performed immediately after activation without immobilizing FGFR.\nA cyclic peptide diluted to 10 nmol/L using HBS-EP was added to each flow channel of the FGFR-immobilized sensor chip produced above at 25° C. for 10 minutes, then HBS-EP was allowed to flow as a running buffer for 30 minutes, and the binding of the cyclic peptide to FGFR was measured. Thereafter, a regeneration treatment of removing the bound cyclic peptide was performed by repeating the flow of a regeneration liquid in which sodium chloride powder was dissolved in Glysine 1.5 (Cytiva, BR100354) to a final concentration of 0.15 mol/L for 1 minute in each flow channel twice. The binding amount of the cyclic peptide was evaluated from the difference between the measured value of Biacore-T200 in the flow channel in which FGFR was immobilized and the measured value of Biacore-T200 in the flow channel in which FGFR was not immobilated, in a case where a 10 nmol/L cyclic peptide was allowed to flow.\nThe binding amount of the cyclic peptide evaluated above was normalized to the binding amount of the cyclic peptide molecules per one molecule of FGFR using the molecular weights of the cyclic peptide and FGFR, and the binding affinity to FGFR was evaluated according to the following evaluation criteria. The evaluation result preferably satisfies the evaluation criteria A, B, or C."}, "[2]": {"target": "T2, FGFR3 Protein, Human, Recombinant (ECD, His Tag) (Homo sapiens, UniProt P22607)", "T2 construct": "FGFR3 Protein, Human, Recombinant (ECD, His Tag) (Sino Biological, 16044-H08H); His; purchased Sino Biological 16044-H08H", "T2 sequence (P22607 23-375 limits assumed)": "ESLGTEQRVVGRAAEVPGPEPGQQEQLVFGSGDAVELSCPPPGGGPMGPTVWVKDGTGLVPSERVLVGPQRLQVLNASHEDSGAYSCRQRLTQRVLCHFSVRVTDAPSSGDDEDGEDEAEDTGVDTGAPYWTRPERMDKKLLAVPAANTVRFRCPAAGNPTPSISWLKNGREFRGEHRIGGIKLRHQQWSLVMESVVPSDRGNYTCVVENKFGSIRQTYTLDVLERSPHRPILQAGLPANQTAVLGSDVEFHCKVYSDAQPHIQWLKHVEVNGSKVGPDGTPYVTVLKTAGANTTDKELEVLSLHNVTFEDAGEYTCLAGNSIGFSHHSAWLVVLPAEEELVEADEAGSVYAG", "experiment": "SPR FGFR versatility, peptide immobilized", "conditions": "SPR binding amount at 1 μmol/L FGFR, 25° C., per one molecule of immobilized cyclic peptide", "procedure": "(§2) The binding of the cyclic peptide to various types of FGFRs was evaluated using a surface plasmon resonance (SPR) method.\nas §1, with “a cyclic peptide” for “Recombinant Human FGFR2 alpha (IIIc) Fc Chimera Protein CF (R&D systems, 712-FR-050)”, “to 2 mg/mL” for “at 50 nmol/L”, “HBS-EP” for “an Acetate 4.5”, “buffer” for “buffer (Cytiva, BR100350)”, “200” for “5000”\n(§3) After various FGFRs (FGFR1 Protein, Human, Recombinant (His Tag) (Sino Biological, 10616-H08H), FGFR2 Protein, Human, Recombinant (His Tag) (Sino Biological, 10824-H08H), FGFR3 Protein, Human, Recombinant (ECD, His Tag) (Sino Biological, 16044-H08H), FGFR4 Protein, Human, Recombinant (His Tag) (Sino Biological, 10538-H08H)) diluted with HBS-EP to 1 μmol/L at 25° C. was added to each flow channel of the cyclic peptide-immobilized sensor chip prepared above, for 10 minutes, HBS-EP was allowed to flow as a running buffer for 30 minutes, and the binding of various FGFRs to the cyclic peptide was measured. Thereafter, a regeneration treatment of removing the bound FGFR was performed by repeating the flow of a regeneration liquid in which sodium chloride (final concentration: 0.4 mol/L) and a sodium dodecyl sulfate aqueous solution (mixed concentration: 1%, final concentration: 0.2%) were dissolved in Glysine 1.5 (Cytiva, BR100354) for 1 minute in each flow channel twice. The binding amount of the cyclic peptide was evaluated from the difference between the measured value of Biacore-T200 in the flow channel in which the cyclic peptide was immobilized and the measured value of Biacore-T200 in the flow channel in which the cyclic peptide was not immobilized, in a case where 1 μmol/L FGFR was allowed to flow.\n(§4) The binding amount of FGFR evaluated above was normalized to the binding amount of FGFR molecules per one molecule of the cyclic peptide using the molecular weights of the cyclic peptide and FGFR, and the binding affinity to FGFR was evaluated according to the following evaluation criteria. The evaluation result preferably satisfies the evaluation criteria A, B, or C."}, "[3]": {"target": "T3, FGFR4 Protein, Human, Recombinant (His Tag) (Homo sapiens, UniProt P22455)", "T3 construct": "His; purchased Sino Biological 10538-H08H", "T3 sequence (P22455 22-802)": "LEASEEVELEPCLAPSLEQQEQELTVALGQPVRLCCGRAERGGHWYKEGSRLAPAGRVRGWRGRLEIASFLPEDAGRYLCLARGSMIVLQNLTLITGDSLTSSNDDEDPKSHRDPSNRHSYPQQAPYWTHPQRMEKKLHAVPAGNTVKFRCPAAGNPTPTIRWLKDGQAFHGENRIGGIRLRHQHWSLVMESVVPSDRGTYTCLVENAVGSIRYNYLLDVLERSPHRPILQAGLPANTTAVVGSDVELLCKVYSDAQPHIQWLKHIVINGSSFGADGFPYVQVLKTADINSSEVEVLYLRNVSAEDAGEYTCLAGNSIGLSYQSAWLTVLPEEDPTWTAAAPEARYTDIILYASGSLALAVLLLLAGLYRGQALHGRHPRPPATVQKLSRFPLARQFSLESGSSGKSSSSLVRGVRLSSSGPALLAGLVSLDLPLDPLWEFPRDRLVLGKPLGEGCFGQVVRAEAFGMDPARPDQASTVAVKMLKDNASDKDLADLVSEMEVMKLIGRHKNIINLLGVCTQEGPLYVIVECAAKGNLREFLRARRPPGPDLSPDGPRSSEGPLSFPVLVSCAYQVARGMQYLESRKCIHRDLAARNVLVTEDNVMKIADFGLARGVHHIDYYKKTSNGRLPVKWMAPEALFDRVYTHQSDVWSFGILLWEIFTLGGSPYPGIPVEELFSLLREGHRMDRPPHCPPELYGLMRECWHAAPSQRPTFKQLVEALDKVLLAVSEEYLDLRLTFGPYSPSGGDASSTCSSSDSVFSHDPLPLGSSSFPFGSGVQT", "experiment": "SPR FGFR versatility, peptide immobilized", "conditions": "SPR binding amount at 1 μmol/L FGFR, 25° C., per one molecule of immobilized cyclic peptide", "procedure": "as §2\nas §1, with “a cyclic peptide” for “Recombinant Human FGFR2 alpha (IIIc) Fc Chimera Protein CF (R&D systems, 712-FR-050)”, “to 2 mg/mL” for “at 50 nmol/L”, “HBS-EP” for “an Acetate 4.5”, “buffer” for “buffer (Cytiva, BR100350)”, “200” for “5000”\nas §3, §4"}, "[4]": {"target": "T4, FGFR1 Protein, Human, Recombinant (His Tag) (Homo sapiens, UniProt P11362)", "T4 construct": "His; purchased Sino Biological 10616-H08H", "T4 sequence (P11362 22-822)": "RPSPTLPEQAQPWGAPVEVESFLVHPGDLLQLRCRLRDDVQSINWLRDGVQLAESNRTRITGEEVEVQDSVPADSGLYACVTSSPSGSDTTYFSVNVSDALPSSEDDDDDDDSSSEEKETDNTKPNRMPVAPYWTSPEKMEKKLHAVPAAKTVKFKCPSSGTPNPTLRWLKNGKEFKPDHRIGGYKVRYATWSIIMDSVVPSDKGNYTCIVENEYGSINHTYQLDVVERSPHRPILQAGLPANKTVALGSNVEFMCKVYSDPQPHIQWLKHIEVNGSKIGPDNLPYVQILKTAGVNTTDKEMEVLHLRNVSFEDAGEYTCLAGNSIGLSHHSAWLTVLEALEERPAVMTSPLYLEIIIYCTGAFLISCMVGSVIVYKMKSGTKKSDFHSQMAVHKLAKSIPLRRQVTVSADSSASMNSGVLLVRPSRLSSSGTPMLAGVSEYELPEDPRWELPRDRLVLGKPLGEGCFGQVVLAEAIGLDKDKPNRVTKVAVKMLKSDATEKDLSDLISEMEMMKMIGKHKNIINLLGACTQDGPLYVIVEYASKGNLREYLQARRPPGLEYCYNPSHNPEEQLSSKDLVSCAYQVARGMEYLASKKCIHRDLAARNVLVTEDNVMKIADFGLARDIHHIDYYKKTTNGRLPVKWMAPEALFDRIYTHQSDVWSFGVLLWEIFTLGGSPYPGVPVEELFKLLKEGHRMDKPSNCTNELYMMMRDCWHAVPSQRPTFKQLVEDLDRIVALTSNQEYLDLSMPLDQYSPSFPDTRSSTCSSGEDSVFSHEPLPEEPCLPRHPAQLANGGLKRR", "experiment": "SPR FGFR versatility, peptide immobilized", "conditions": "SPR binding amount at 1 μmol/L FGFR, 25° C., per one molecule of immobilized cyclic peptide", "procedure": "as §2\nas §1, with “a cyclic peptide” for “Recombinant Human FGFR2 alpha (IIIc) Fc Chimera Protein CF (R&D systems, 712-FR-050)”, “to 2 mg/mL” for “at 50 nmol/L”, “HBS-EP” for “an Acetate 4.5”, “buffer” for “buffer (Cytiva, BR100350)”, “200” for “5000”\nas §3, §4"}, "[5]": {"target": "T5, FGFR2 Protein, Human, Recombinant (His Tag) (Homo sapiens, UniProt P21802)", "T5 construct": "His; purchased Sino Biological 10824-H08H", "T5 sequence (P21802 22-821)": "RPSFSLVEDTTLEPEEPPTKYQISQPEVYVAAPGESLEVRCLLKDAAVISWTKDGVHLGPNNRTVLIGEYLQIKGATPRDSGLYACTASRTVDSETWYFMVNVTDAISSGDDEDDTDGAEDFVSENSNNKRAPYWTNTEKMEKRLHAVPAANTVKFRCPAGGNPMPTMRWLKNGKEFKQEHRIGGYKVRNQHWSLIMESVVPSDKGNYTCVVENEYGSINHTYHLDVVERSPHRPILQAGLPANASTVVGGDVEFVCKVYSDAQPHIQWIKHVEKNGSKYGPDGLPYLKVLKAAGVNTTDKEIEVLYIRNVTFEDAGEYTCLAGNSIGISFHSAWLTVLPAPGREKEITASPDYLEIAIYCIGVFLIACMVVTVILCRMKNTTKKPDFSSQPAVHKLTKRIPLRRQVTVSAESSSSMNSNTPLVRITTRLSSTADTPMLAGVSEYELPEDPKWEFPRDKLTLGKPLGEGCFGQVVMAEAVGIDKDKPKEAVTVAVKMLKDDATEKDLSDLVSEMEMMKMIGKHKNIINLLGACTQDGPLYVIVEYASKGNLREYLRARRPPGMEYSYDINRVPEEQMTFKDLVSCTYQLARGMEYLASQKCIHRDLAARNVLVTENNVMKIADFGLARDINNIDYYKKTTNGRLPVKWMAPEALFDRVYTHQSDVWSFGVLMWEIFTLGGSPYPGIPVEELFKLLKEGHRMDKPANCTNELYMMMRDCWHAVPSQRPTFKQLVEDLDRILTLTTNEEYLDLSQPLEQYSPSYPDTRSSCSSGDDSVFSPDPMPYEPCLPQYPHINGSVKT", "experiment": "SPR FGFR versatility, peptide immobilized", "conditions": "SPR binding amount at 1 μmol/L FGFR, 25° C., per one molecule of immobilized cyclic peptide", "procedure": "as §2\nas §1, with “a cyclic peptide” for “Recombinant Human FGFR2 alpha (IIIc) Fc Chimera Protein CF (R&D systems, 712-FR-050)”, “to 2 mg/mL” for “at 50 nmol/L”, “HBS-EP” for “an Acetate 4.5”, “buffer” for “buffer (Cytiva, BR100350)”, “200” for “5000”\nas §3, §4"}, "[6]": {"experiment": "Molecular stability after reducing agent (DTT) treatment, LC", "format": "physicochemical", "conditions": "residual rate after DTT aqueous solution, room temperature, 1 hour", "procedure": "The molecular stability of the cyclic peptide was evaluated by analyzing an aqueous solution of the cyclic peptide treated with a reducing agent by liquid chromatography (LC).\nThe reducing agent treatment was performed under the following conditions based on the concentration of glutathione contained in the cells. 25 μL of a 0.2 mg/mL cyclic peptide aqueous solution was prepared, 58.8 μL of a 12.6 mmol/L DTT aqueous solution was added to the aqueous solution, and the mixture was incubated at room temperature for 1 hour to obtain an aqueous solution of the cyclic peptide treated with a reducing agent. The DTT aqueous solution was used by diluting a 1 mol/L (+−)-dithiothreitol (DTT) solution (FUJIFILM Wako Pure Chemical Corporation, 044-33871) with water. The total area of all the peaks in LC/MS of the cyclic peptide before the reducing agent treatment was set to 100%, and the proportion of the total area of all the peaks in LC/MS of the aqueous solution of the cyclic peptide treated with the reducing agent was determined to calculate the residual rate of the cyclic peptide, and the molecular stability was evaluated according to the following evaluation criteria. The evaluation result preferably satisfies the evaluation criteria A, B, or C.\nThe LC used for the evaluation of molecular stability was set to the following conditions. • LC device: Prominence series (pump, column oven, autosampler, detector) (manufactured by Shimadzu Corporation) • Detector: photodiode array detector (SPD-M20A), measurement wavelength of 280 nm • Column: TSKgel ODS-100V, inner diameter of 4.6 mm×length of 150 mm, particle diameter of 5 μm (manufactured by Tosoh Corporation) • Eluent A: solution containing 0.1% trifluoroacetic acid as solute, and solvent is 100% water • Eluent B: solution containing 0.1% trifluoroacetic acid as solute, and solvent is 100% acetonitrile • Flow rate: 1.0 mL/min • Injection amount: 25 μL • Gradient: 20% to 50%: Eluent B (0 to 15 minutes), 100%: Eluent B (15 minutes) • Column temperature: 40° C."}},
  "note": "Bridge positions count the residues as written; N and C are the ends. Ends that are not written are not given here. COCH2 = acetyl group that carries the bridge",
  "data": [
    {"substance": "450 (YCEENYLDPEQYQYFIYFK(COCH2)YKKK; thioether 2-19) [compound 450]", "values": [
      {"measurement": "Evaluation result of binding affinity to FGFR", "setting": "[1]", "result": "A (The binding amount is 0.7 molecules of the cyclic peptide/one molecule of FGFR or more.)"},
      {"measurement": "Evaluation result of binding affinity to FGFR3", "setting": "[2]", "result": "B (The binding amount is 0.01 molecules of FGFR/one molecule of the cyclic peptide or more and less than 0.05 molecules of FGFR/one molecule of the cyclic peptide.)"},
      {"measurement": "Evaluation result of binding affinity to FGFR4", "setting": "[3]", "result": "B (The binding amount is 0.01 molecules of FGFR/one molecule of the cyclic peptide or more and less than 0.05 molecules of FGFR/one molecule of the cyclic peptide.)"},
      {"measurement": "Evaluation result of binding affinity to FGFR1", "setting": "[4]", "result": "B (The binding amount is 0.01 molecules of FGFR/one molecule of the cyclic peptide or more and less than 0.05 molecules of FGFR/one molecule of the cyclic peptide.)"},
      {"measurement": "Evaluation result of binding affinity F GFR2", "setting": "[5]", "result": "A (The binding amount is 0.05 molecules of FGFR/one molecule of the cyclic peptide or more.)"},
      {"measurement": "Evaluation result of reductive stability", "setting": "[6]", "result": "B (The residual rate of the cyclic peptide is 70% or more and less than 90%)"}
    ]}
  ]
}
